Reference: the supplement of paper PMC10065799, “High-throughput profiling of sequence recognition by tyrosine kinases and SH2 domains using bacterial peptide display” (eLife, 2023)

Columns and labels:
[1] = target: EPHB1 (UniProt P54762); experiment: phosphorylation enrichment, bacterial display (enrichment ratio); higher = better substrate or ligand; peptides without Tyr show the background
[2] = test system: c-Abl (mouse); experiment: as above
[3] = test system: c-Src; experiment: as above
[4] = target: Jak2 (UniProt O60674); experiment: as above
[5] = test system: AncSZ; experiment: as above
[6] = target: Hck (UniProt P08631); experiment: as above
Hck, sequence (P08631 whole entry, looked up): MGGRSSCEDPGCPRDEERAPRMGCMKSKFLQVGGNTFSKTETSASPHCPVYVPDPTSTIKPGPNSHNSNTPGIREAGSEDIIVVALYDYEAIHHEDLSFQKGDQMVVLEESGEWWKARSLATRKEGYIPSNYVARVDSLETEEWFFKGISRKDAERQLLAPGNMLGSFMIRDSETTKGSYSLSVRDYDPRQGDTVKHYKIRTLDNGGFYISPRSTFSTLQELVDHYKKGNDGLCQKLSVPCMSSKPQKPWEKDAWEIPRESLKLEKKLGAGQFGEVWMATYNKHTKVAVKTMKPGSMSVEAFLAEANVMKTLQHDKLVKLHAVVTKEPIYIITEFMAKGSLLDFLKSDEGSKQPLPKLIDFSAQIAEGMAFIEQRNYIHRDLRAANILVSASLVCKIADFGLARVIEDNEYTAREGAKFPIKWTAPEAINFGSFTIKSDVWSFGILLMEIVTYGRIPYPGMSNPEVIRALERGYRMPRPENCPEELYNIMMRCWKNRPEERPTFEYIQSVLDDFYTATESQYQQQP

[7] = target: EPHB2 (UniProt P29323); experiment: as above
EPHB2, sequence (P29323 whole entry, looked up): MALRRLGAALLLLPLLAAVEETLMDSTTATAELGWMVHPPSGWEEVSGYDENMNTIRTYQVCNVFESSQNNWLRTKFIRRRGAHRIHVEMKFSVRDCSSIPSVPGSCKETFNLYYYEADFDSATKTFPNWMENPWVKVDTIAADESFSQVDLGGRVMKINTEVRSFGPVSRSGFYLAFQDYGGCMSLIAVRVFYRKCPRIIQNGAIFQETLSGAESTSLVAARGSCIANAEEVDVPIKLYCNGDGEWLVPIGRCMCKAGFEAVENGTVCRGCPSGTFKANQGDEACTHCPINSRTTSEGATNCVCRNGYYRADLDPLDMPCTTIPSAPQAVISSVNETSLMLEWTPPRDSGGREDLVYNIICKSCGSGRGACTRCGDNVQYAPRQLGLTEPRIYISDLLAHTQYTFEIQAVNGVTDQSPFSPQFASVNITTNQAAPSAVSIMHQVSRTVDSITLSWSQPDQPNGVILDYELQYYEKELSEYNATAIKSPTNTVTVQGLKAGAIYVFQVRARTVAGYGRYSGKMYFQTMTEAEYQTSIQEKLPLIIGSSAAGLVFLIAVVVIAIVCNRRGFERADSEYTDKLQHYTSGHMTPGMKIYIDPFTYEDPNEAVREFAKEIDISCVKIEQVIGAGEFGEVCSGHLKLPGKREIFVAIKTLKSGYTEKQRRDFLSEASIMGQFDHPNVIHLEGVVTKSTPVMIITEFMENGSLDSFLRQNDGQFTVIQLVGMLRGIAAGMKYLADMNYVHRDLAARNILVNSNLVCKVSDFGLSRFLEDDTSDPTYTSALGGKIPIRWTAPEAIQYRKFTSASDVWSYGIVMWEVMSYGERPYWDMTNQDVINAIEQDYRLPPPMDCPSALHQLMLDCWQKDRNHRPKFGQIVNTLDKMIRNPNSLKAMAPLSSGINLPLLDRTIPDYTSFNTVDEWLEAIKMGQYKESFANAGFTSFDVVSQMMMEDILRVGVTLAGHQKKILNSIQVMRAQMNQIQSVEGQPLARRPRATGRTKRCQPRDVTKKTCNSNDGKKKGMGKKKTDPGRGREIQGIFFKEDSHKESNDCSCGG

[8] = test system: Fer (mouse); experiment: as above
[9] = target: Fes (UniProt P07332); experiment: as above
Fes, sequence (P07332 whole entry, looked up): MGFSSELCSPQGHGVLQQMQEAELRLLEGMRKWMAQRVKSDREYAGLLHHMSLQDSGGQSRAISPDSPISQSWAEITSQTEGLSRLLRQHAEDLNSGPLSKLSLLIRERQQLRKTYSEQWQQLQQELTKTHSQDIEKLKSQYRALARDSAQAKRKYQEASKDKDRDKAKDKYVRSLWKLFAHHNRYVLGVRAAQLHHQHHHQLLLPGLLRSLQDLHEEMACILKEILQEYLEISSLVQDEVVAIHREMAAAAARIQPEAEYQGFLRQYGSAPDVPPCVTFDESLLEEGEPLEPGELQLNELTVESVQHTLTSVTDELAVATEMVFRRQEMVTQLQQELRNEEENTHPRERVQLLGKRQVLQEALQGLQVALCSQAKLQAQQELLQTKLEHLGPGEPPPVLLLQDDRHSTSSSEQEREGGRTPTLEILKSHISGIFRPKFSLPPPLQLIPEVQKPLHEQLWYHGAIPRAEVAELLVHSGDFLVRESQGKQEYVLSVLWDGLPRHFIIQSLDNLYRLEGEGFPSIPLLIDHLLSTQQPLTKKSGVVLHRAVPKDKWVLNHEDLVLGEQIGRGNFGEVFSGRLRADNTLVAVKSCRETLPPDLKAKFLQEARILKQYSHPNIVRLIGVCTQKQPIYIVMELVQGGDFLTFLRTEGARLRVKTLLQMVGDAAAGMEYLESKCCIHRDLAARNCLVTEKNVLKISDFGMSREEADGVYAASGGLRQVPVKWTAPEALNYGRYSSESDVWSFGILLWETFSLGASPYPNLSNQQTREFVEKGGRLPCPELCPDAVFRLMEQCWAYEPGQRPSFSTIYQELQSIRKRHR

[10] = target: MERTK (UniProt Q12866); experiment: as above
[11] = target: Fyn (UniProt P06241); experiment: as above
[12] = target: FGFR1 (UniProt P11362); experiment: as above
FGFR1, sequence (P11362 whole entry, looked up): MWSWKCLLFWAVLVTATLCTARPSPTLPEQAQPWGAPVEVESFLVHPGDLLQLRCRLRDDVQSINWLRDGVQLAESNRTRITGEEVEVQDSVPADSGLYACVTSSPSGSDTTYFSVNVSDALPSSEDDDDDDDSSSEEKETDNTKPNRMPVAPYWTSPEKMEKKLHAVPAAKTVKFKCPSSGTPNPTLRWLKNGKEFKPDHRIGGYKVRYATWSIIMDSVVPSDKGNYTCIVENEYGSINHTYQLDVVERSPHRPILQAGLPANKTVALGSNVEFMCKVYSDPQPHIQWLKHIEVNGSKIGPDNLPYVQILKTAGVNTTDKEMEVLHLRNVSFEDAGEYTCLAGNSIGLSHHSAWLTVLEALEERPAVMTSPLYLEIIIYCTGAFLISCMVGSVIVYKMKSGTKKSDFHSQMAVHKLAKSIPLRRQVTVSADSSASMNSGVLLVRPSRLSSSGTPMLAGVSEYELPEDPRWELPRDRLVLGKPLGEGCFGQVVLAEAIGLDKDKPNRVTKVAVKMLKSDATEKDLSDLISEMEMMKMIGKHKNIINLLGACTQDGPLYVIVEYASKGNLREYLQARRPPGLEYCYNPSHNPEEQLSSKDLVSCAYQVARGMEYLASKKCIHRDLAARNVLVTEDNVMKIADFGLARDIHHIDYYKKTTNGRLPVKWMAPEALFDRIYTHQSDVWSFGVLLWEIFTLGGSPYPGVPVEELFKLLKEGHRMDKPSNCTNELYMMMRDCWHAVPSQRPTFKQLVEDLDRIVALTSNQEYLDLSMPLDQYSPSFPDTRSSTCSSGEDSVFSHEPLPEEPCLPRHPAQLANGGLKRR

[13] = target: FGFR3 (UniProt P22607); experiment: as above
FGFR3, sequence (P22607 whole entry, looked up): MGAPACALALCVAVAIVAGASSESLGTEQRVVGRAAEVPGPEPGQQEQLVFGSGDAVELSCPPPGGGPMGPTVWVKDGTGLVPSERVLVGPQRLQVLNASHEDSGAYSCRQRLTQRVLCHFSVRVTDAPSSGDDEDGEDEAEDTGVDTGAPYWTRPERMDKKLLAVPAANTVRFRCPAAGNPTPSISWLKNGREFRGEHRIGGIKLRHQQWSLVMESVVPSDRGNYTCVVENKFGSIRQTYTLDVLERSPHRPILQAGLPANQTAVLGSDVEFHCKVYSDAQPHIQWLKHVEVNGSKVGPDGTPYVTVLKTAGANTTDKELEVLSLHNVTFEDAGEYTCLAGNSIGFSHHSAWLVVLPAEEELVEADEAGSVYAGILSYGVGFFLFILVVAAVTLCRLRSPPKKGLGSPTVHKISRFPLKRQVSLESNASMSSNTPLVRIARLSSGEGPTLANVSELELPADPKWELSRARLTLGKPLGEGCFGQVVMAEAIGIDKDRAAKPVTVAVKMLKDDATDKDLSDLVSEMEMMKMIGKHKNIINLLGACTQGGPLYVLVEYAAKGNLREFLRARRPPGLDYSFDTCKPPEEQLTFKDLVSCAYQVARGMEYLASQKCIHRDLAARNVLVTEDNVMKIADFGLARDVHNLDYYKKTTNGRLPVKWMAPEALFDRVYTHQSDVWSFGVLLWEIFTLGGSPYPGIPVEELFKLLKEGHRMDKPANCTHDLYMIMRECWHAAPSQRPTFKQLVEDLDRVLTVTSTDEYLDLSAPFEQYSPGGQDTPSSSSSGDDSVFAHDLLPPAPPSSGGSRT

[14] = target: SHP2-C SH2; experiment: SH2 binding enrichment of the phosphorylated peptide, bacterial display (enrichment ratio); higher = better substrate or ligand; peptides without Tyr show the background
[15] = target: c-Src SH2; experiment: as above
[16] = target: Grb2 SH2 (UniProt P62993); experiment: as above
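Wherever SH2 binding enrichment of the phosphorylated peptide, bacterial display is given: peptide library displayed on the E. coli surface as eCPX fusions, selected cells deep-sequenced, score is each peptide's frequency after selection divided by its frequency in the input.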
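Wherever phosphorylation enrichment, bacterial display is given: 11-residue human phosphosite peptides and single-mutation variants displayed on the E. coli surface, counted by deep sequencing, each peptide's frequency after selection divided by its frequency in the unselected input library; frequency after pTyr selection over input frequency; kinase dosed for 20-30% of maximal phosphorylation in three min.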

EPHB1, sequence (P54762 whole entry, looked up): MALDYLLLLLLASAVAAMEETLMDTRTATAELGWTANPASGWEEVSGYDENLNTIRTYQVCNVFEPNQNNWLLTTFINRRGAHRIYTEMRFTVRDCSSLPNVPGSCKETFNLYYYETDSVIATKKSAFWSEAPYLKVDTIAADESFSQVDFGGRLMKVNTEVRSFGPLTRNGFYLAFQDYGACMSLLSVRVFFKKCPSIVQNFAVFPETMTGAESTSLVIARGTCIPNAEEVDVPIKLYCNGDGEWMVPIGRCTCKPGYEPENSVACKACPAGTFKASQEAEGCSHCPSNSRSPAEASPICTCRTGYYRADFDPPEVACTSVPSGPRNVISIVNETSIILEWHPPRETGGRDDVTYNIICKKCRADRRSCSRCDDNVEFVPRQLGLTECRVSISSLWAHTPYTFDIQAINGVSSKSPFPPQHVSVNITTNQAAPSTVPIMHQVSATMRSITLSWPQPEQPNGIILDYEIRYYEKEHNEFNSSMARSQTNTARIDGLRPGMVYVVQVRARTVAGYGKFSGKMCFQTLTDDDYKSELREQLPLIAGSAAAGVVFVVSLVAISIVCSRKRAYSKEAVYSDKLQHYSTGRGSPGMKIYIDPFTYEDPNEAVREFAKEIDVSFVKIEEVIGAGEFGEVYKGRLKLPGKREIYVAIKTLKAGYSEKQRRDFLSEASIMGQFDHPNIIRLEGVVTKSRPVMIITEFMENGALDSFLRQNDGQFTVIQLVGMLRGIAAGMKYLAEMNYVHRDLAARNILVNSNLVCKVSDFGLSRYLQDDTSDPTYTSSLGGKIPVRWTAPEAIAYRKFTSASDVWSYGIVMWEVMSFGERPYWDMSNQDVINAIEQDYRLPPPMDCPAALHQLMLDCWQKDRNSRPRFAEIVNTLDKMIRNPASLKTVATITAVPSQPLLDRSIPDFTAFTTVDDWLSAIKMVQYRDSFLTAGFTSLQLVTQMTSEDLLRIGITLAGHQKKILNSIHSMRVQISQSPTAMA

Sequence | phosphorylation enrichment [1] | phosphorylation enrichment [2] | phosphorylation enrichment [3] | phosphorylation enrichment [4] | phosphorylation enrichment [5] | phosphorylation enrichment [6] | phosphorylation enrichment [7] | phosphorylation enrichment [8] | phosphorylation enrichment [9] | phosphorylation enrichment [10] | phosphorylation enrichment [11] | phosphorylation enrichment [12] | phosphorylation enrichment [13] | SH2 binding enrichment [14] | SH2 binding enrichment [15] | SH2 binding enrichment [16]
KPIETYFSKNF [PLP1_Y50_L46P_YF] | 0.506 | 0.53 | 0.44 | 0.636 | 0.656 | 0.436 | 0.497 | 0.379 | 0.775 | 0.465 | 0.544 | 0.417 | 0.555 | 0.568 | 0.439 | 0.663
TPLSAYQIPRT [GAB2_Y324] | 0.415 | 8.8 | 0.435 | 0.615 | 0.593 | 0.29 | 0.466 | 0.586 | 0.539 | 0.703 | 0.365 | 0.408 | 0.317 | 0.853 | 0.792 | 1.04
NPSYNYEIVNQ [DYNC1H1_Y3379_R3384Q] | 10.5 | 0.55 | 0.506 | 0.754 | 0.885 | 0.497 | 4.17 | 2.7 | 0.818 | 0.694 | 0.463 | 0.583 | 0.701 | 0.348 | 0.642 | 0.736
TQNGVYSAANF [DDX5_Y535_YF] | 1.4 | 2 | 5.43 | 0.444 | 0.56 | 8.3 | 1.94 | 4.42 | 0.541 | 6.66 | 7.62 | 0.489 | 0.443 | 0.611 | 0.855 | 0.861
LAETSYVKVLE [MAGEA1_Y276] | 0.499 | 0.616 | 0.512 | 0.888 | 0.817 | 0.473 | 0.471 | 0.472 | 1.03 | 0.452 | 0.479 | 0.53 | 0.532 | 7 | 1.69 | 0.94
ALCHYYKLNII [ETV6_Y402_R399C] | 0.97 | 2 | 1.54 | 3.3 | 1.59 | 1.09 | 0.738 | 0.615 | 1.62 | 2.26 | 0.798 | 5.97 | 5.13 | 1.34 | 0.855 | 0.895
HKETGYVVERP [BCLAF1_Y466_L461H] | 0.475 | 1.28 | 0.652 | 1.14 | 0.746 | 0.448 | 0.502 | 0.439 | 1.36 | 0.445 | 0.497 | 0.582 | 0.656 | 0.401 | 0.394 | 0.747
GFAIVYGTIIL [GPR179_Y460] | 0.644 | 1.31 | 0.462 | 1.28 | 1.19 | 0.502 | 0.592 | 0.514 | 1.32 | 0.389 | 0.431 | 0.441 | 0.84 | 0.547 | 0.364 | 0.604
QSSALYEDRFL [ASS1_Y83_YF] | 4.13 | 1.08 | 2.02 | 1.23 | 1.19 | 6.48 | 1.86 | 10.1 | 1.53 | 1.24 | 1.48 | 0.781 | 1.01 | 0.471 | 0.65 | 0.835
FGLQAYTKVKT [ALDH2_Y502_E504K_YF] | 0.763 | 0.799 | 0.442 | 1.33 | 1.12 | 0.513 | 0.644 | 0.476 | 1.23 | 0.447 | 0.546 | 0.472 | 0.877 | 1.65 | 1.38 | 0.744
QDIMAYRSREV [BCL6_Y157_G159S] | 0.456 | 0.745 | 0.513 | 0.759 | 0.569 | 0.314 | 0.343 | 0.196 | 0.746 | 0.398 | 0.323 | 0.285 | 0.664 | 0.955 | 0.42 | 0.699
ASELGYVFQAI [UROD_Y133] | 0.471 | 0.545 | 0.423 | 0.924 | 1.03 | 0.378 | 0.566 | 0.386 | 0.852 | 0.264 | 0.397 | 0.483 | 0.749 | 0.475 | 0.771 | 0.986
GGSTYYIDTNA [ACTL6A_Y69_P66S] | 0.563 | 0.654 | 0.805 | 0.668 | 0.882 | 0.602 | 0.555 | 0.453 | 0.998 | 1.01 | 0.955 | 0.724 | 0.719 | 0.906 | 0.731 | 1.03
AEKPKYQISNI [TJP1_Y1602_N1605S] | 0.286 | 0.54 | 0.36 | 0.401 | 0.896 | 0.41 | 0.376 | 0.377 | 0.544 | 0.333 | 0.372 | 0.358 | 0.409 | 0.516 | 0.503 | 0.739
SDVSSYLEGQA [GCG_Y110] | 0.469 | 0.678 | 0.474 | 0.769 | 0.867 | 0.488 | 0.76 | 0.775 | 0.938 | 0.432 | 0.447 | 0.456 | 0.657 | 0.738 | 0.41 | 0.727
FKDGQYWIRGR [ACSF3_Y466] | 0.317 | 0.491 | 0.501 | 0.671 | 0.78 | 0.614 | 0.369 | 0.387 | 0.862 | 0.379 | 0.448 | 0.361 | 0.482 | 0.359 | 0.46 | 0.825
TKLKDYFIFNK [CCDC42_Y149_A144T_YF] | 0.52 | 0.476 | 0.575 | 0.702 | 0.685 | 0.42 | 0.353 | 0.376 | 0.766 | 0.401 | 0.419 | 1.05 | 0.871 | 0.595 | 0.724 | 0.773

Sequence | phosphorylation enrichment [1] | phosphorylation enrichment [2] | phosphorylation enrichment [3] | phosphorylation enrichment [4] | phosphorylation enrichment [5] | phosphorylation enrichment [6] | phosphorylation enrichment [7] | phosphorylation enrichment [8] | phosphorylation enrichment [9] | phosphorylation enrichment [10] | phosphorylation enrichment [11] | phosphorylation enrichment [12] | phosphorylation enrichment [13] | SH2 binding enrichment [14] | SH2 binding enrichment [15] | SH2 binding enrichment [16]
PDNKPYIFKVF [PIK3AP1_Y553_E551K] | 0.752 | 0.79 | 0.526 | 1.03 | 1.37 | 0.619 | 0.919 | 0.728 | 1.75 | 0.428 | 0.665 | 0.681 | 0.831 | 1.03 | 0.568 | 1.08
FLQTDDTSQVS [FRMPD1_Y846_Y846D] | 0.632 | 1.07 | 0.476 | 0.99 | 1.05 | 0.587 | 0.648 | 0.49 | 1.12 | 0.622 | 0.481 | 0.445 | 0.645 | 0.66 | 0.457 | 0.798
DRLASYLDKVP [KRT14_Y129_R134P] | 0.537 | 0.621 | 0.493 | 0.883 | 0.802 | 0.5 | 0.472 | 0.499 | 0.912 | 0.495 | 0.481 | 0.456 | 0.689 | 0.797 | 0.521 | 1.04
NYADPYRQLQY [CTNND2_Y503] | 9.61 | 0.687 | 0.551 | 0.672 | 0.776 | 0.615 | 10.8 | 0.464 | 0.747 | 2.57 | 0.43 | 3.72 | 1.99 | 1.12 | 1.5 | 0.892
RRQDLYSARDL [SART1_Y249] | 0.576 | 0.525 | 1.21 | 0.663 | 1.45 | 5.63 | 0.367 | 0.401 | 0.744 | 1.55 | 0.972 | 0.586 | 0.615 | 0.767 | 0.402 | 1.14
QRDSSYYWEIE [RAF1_Y340] | 2.77 | 0.744 | 1.95 | 1.13 | 1.3 | 0.981 | 1.14 | 0.536 | 1.09 | 3.5 | 2.12 | 3.91 | 3.03 | 0.797 | 10.6 | 0.762
IGEVVYQWAVM [GRIN2A_Y502_R504W] | 0.89 | 1.57 | 1.47 | 1.17 | 2.06 | 1.1 | 0.598 | 7.77 | 1.48 | 0.904 | 1.16 | 1.03 | 1.15 | 0.61 | 0.532 | 0.845
QEGPEYWDGET [HLA-A_Y83_Q86G] | 0.739 | 0.964 | 0.554 | 1.67 | 1.73 | 0.712 | 0.786 | 0.788 | 1.71 | 0.627 | 0.712 | 0.839 | 1.25 | 0.662 | 0.476 | 0.957
LYDPDFMKVIL [CYP4A22_Y104_Y104F] | 0.772 | 1.8 | 0.954 | 1.39 | 1.18 | 0.634 | 1.01 | 1.09 | 1.78 | 2.57 | 0.888 | 0.562 | 0.688 | 0.634 | 0.467 | 0.785
MDDKEYYSVHN [MET_Y1234_Y1230D] | 0.613 | 0.747 | 0.695 | 1.03 | 1.99 | 0.619 | 0.62 | 0.54 | 1.06 | 0.373 | 0.575 | 2.06 | 1.88 | 0.759 | 0.557 | 0.952
ELETLYKKAVK [CC2D2A_Y381] | 0.526 | 0.517 | 0.323 | 0.684 | 0.702 | 0.554 | 0.47 | 0.37 | 0.896 | 0.416 | 0.366 | 0.485 | 0.731 | 0.589 | 0.458 | 0.809
VDTRAYFTSAT [MT-CO1_Y304] | 0.37 | 0.382 | 0.38 | 0.525 | 0.61 | 0.479 | 0.361 | 0.256 | 0.687 | 0.366 | 0.39 | 0.397 | 0.459 | 0.678 | 0.693 | 1.01
TIQDAYMHITS [ADCY10_Y318_A313T] | 0.479 | 0.525 | 0.451 | 0.676 | 0.7 | 0.496 | 0.398 | 0.416 | 0.799 | 0.529 | 0.51 | 0.624 | 0.43 | 0.895 | 1.26 | 0.902
RQQQDYWLKDV [ANPEP_Y600_I603K] | 0.484 | 0.662 | 0.564 | 1.25 | 1.07 | 0.322 | 0.556 | 0.495 | 0.911 | 0.52 | 0.305 | 0.71 | 0.741 | 0.635 | 0.675 | 1.01
KHGGNYVPAPK [OSCP1_Y237] | 0.407 | 0.822 | 0.491 | 0.692 | 0.7 | 0.529 | 0.304 | 0.456 | 1.05 | 0.439 | 0.359 | 0.512 | 0.604 | 1.19 | 1.08 | 1.3
NGSKGYAFVHF [PABPC5_Y147_YF] | 0.481 | 0.755 | 0.407 | 0.825 | 0.879 | 0.445 | 0.606 | 0.478 | 0.875 | 0.444 | 0.469 | 0.5 | 0.611 | 25.9 | 3.1 | 1.09
